Literature values, collected in publication PMC2854688.
Where “and” joins values, the source holds several entries; their conditions need not be identical. Equal values may be shown once.

Key:
[1] = target: eRF3 overlapping PAM2 peptide PAM2 (Homo sapiens) (UniProt P15170)
[2] = target: eRF3 PAM2 peptide PAM2 (Homo sapiens) (UniProt P15170)

Kd [1]: 1.3 µM | Kd [2]: 3.9 µM and 3.1 µM
Substance: PABPC1 MLLE domain MLLE (from UniProt P11940)
